T1: human PRLR on cells (endogenous on T47D, T47D#11, MCF7); introduced in HEK293/hPRLR/STAT5-Luc, 293/hPRLR, … (human, UniProt P16471 25-622)
T1 sequence: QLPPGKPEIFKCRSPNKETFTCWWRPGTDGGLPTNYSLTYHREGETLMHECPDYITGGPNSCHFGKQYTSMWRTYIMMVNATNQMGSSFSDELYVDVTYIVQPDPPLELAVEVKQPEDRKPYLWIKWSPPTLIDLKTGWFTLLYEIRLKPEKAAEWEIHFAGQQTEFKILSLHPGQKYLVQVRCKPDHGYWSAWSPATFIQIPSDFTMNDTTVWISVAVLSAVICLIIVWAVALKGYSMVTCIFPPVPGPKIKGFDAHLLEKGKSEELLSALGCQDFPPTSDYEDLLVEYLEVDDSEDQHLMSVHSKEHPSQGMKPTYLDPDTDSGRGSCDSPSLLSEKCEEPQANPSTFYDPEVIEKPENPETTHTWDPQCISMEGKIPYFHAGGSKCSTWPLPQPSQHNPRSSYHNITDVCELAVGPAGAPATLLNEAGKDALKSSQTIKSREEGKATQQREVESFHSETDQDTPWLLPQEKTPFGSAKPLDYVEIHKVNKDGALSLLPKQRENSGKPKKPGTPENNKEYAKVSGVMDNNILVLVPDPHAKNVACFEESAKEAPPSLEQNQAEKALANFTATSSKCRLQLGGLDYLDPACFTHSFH

T2: monkey macaca fascicularis PRLR construct with an HA tag on HEK293/mfPRLR cells (macaca fascicularis, UniProt A0A2K5WXK1 25-619)
T2 construct: stably transfected into HEK293
T2 sequence: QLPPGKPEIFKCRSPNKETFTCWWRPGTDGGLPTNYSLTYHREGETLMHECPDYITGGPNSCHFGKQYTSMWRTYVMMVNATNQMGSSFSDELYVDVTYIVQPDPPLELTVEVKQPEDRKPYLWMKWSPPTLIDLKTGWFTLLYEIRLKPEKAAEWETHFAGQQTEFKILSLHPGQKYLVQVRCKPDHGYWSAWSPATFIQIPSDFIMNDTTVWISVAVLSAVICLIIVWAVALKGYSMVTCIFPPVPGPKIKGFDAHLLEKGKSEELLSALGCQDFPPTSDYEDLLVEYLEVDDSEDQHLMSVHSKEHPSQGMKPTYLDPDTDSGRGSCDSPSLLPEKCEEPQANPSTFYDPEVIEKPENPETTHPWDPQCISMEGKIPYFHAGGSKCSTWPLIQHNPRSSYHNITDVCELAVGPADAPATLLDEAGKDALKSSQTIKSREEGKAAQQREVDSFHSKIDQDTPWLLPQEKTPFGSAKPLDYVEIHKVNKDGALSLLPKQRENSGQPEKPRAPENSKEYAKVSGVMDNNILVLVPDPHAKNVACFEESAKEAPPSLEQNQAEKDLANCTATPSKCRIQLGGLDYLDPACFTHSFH

T3: mfPRLR.mmh (soluble monomeric macaca fascicularis PRLR) (macaca fascicularis)
T3 construct: soluble monomeric PRLR protein; also called macaca fascicularis (mf) PRLR.mmh; monkey PRLR
T3 chain: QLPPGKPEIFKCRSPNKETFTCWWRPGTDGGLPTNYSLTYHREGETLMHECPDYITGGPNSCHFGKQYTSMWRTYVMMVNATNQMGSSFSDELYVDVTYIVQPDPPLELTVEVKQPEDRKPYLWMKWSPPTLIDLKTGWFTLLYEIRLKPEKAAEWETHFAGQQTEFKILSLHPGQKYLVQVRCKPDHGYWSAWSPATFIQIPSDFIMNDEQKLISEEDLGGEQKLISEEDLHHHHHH

T4: hPRLR.mmh (soluble monomeric human PRLR) (human)
T4 construct: soluble monomeric PRLR protein
T4 chain: T3 chain with V76I, T110A, M125I, T158I, I207T

T5: hPRLR.mFc (soluble dimeric human PRLR) (human)
T5 construct: dimeric PRLR construct
T5 chain: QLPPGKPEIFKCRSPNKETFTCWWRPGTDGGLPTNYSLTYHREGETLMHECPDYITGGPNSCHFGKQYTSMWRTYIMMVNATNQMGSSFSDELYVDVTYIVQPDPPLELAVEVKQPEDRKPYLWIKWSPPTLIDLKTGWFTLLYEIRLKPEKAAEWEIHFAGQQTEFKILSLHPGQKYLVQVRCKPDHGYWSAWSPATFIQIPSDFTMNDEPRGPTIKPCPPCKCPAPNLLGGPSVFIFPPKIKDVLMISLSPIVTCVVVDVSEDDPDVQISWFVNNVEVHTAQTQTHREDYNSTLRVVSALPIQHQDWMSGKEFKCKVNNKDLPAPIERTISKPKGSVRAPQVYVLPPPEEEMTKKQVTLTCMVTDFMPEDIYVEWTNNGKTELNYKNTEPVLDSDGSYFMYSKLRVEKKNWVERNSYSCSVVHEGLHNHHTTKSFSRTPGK

B1: H1H6976N (antibody, human IgG1, V domains shown)
VH: EVQLLESGGGFVQPGGSLRLSCAASGFTFSSYAMSWVRQAPGKGLEWVSIISSNGRYTYYADSVKGRFTISRDNSKNTLYLQMNSLRAEDTAVYYCATVTGDWFDPWGQGTLVTVSS
VL: DIQLTQSPSFLSASVGDRVTITCWASQDIDISLAWYQQKPGKAPKLLIYAASTLQSGVPSKFSGSGSGTDFTLTISSLQPEDFSTYYCQQLNSYPITFGQGTRLDIK
notes: also called H2M6976N
B2: H1H6765P (antibody, human IgG1, V domains shown)
VH: EVQLVESGGGVVRPGGSLRLSCVGSGFSFDDHGMNWVRQGPGKGLEWVSGFNWNGGSTNYAESVKGRFTISRDNARNSLFLQMNSLRAEDTALYYCVRGRSGWFNDAFDVWGPGTMVTVSS
VL: EIVLTQSPGTLSLSPGERATLSCRASQTINSNYLAWYRQKPGQTPRLLIYGTSSRATGIPDRFSGSGSGTDFSLTISRLEPEDFAVFYCQQYAGLPTFGPGTKVDIK
notes: human IgG1 Fc (H1H)
B3: H1H6762P (antibody, human IgG1, V domains shown)
VH: QVQLVESGGGVVQPGRSLRLSCAASGFTFSHYGMVWVRQPPGKGLEWVALISFDGTTKYYADSVKGRFTISRDNSKNTLYLQMNSLRAEDTAVYFCVGAIAAAAFDLWGRGTLVTVSS
VL: EIVMTQSPATLSVSPGERATLSCRASQSVSSDLAWYQQKPGQAPRLLIYSASARATGIPARFTGSGSGTDFTLTISSLQSEDFAVYYCQQYNNWPMYTFGQGTKLEIK
notes: human IgG1 Fc (H1H)
B4: H1H6782P (antibody, human IgG1, V domains shown)
VH: EVQLVESGGGLVQPGRSLRLSCAASGFTFDDYAMHWVRQAPGKGLEWVSGIIWNSGHIGYGDSVKGRFTISRDNAKKSLYLQMNSLRAEDTALYYCARDSGRYQSYFDYWGQGTLVTVSS
VL: DIQMTQSPSTLSASVGDRVTITCRASHIISSWLAWYQQKPGKAPKVLIFKASSLESGVPSRFSGSGSGTEFTLTISSLQPDDFATYYCQQYNTYSRTFGQGTKVEIK
notes: human IgG1 Fc (H1H)
B5: H1H6793P (antibody, human IgG1, V domains shown)
VH: EVQLVESGGGLVQPGGSLRLSCAASGFSFSIYAMSWFRQAPGKGLEWVSAINGRGDGTHYADSVKGRFTISRDNSKTTLYLQMSSLRAEDTAVYYCAKPVMSTNGFDIWGQGTMVTVSS
VL: DIQMTQSPSTLSASVGDRVTITCRASQSISSWLAWYQLKPGKAPKLLIYKASNLESGVPSRFSGSGSGTEFTLTISSLQPDDFATYYCQQYNIYWTFGQGTKVEIK
notes: human IgG1 Fc (H1H)
B6: H1H6785P (antibody, human IgG1, V domains shown)
VH: EVQLVESGGGLVQPGGSLRLSCAASGFTFSSYEMNWVRQAPGKGLEWISYISSRGGTIYYADSIKGRFTIYRDNARNSLYLQMNSLRAEDTAIYYCARLSGVDIFDIWGQGTMVTVSS
VL: DIQMTQSPSSLSASVGDRVTITCRASQGISNYLAWYQQKPGKVPKLLIYFASTLQSGVPSRFSGGGSGTDFTLTISSLQPEDVATYYCQRYNSAPLTFGGGTKVEIK
notes: human IgG1 Fc (H1H)

Substitutions are numbered along the chain they refer to. Names may count otherwise.

One assay deals with T1, human PRLR on cells (endogenous on …). Nature of the assay: cell-based or functional assay.
For the molecule B1, the “Percent Blocking at 100 nM Antibody (STAT5-Luc reporter)” value (“Percent Blocking at 100 nM Antibody” for short) stood at 23%.

For the molecule B2, the “IC50 of Blocking 5 nM PRL [M] (STAT5-Luc reporter, HEK293/hPRLR/STAT5-Luc cells)” value is 3.3e-11 M and the “Percent Blocking at 100 nM Antibody” value came to 100%.

As for B3, the “IC50 of Blocking 5 nM PRL [M] (STAT5-Luc reporter, HEK293/hPRLR/STAT5-Luc cells)” value is 2.19e-11 M and the “Percent Blocking at 100 nM Antibody” value came out at 100%.

With B4, the “Percent Blocking at 100 nM Antibody” value was 0%.

For B5, the “Percent Blocking at 100 nM Antibody” value worked out at 65%.

Take B6: the “IC50 of Blocking 5 nM PRL [M] (STAT5-Luc reporter, HEK293/hPRLR/STAT5-Luc cells)” value was 3.45e-10 M and the “Percent Blocking at 100 nM Antibody” value was determined as 100%.

Another assay concerns the target T2, monkey macaca fascicularis PRLR …. As to the kind of experiment: FACS on HEK293/mfPRLR cells.
With B1, the “FACS Cell Binding (Fold Above Background)” value was 29 fold.

In the case of B2, the “FACS Cell Binding (Fold Above Background)” value was 27 fold.

For the molecule B3, the “FACS Cell Binding (Fold Above Background)” value was 26 fold.

Regarding B4, the “FACS Cell Binding (Fold Above Background)” value worked out at 32 fold.

As for B5, the “FACS Cell Binding (Fold Above Background)” value stood at 32 fold.

In the case of B6, the “FACS Cell Binding (Fold Above Background)” value turned out to be 26 fold.

Another assay addresses T3, mfPRLR.mmh (soluble monomeric macaca …). As to the kind of experiment: SPR (Biacore), antibody capture, 37 C. On the procedure: (§1) Measurements were conducted on a T200 Biacore instrument. Kinetic association (kₐ) and dissociation (kd) rate constants were determined by processing and fitting the data to a 1:1 binding model using Scrubber 2.0 curve fitting software.
Usually Kd stands for the concentration at which binding is half-saturated. By koff is commonly meant the first-order rate constant of dissociation. As a reminder, the kon is the second-order rate constant of association. Turning to B1, binding was characterised by a dissociation constant (Kd) of 5.24 nM, the “T 1/2” value was determined as 3.7 min, the koff worked out at 0.00316 s⁻¹ and the kon turned out to be 603000 M⁻¹ s⁻¹.

B2: the Kd worked out at 0.0504 nM, the “T 1/2” value worked out at 215 min, the off-rate (koff) came to 5.37e-05 s⁻¹ and the kon turned out to be 1.06e+06 M⁻¹ s⁻¹.

Take B3: the Kd was found to be 0.823 nM, the “T 1/2” value amounted to 21 min, the koff is 0.000558 s⁻¹ and the kon is 679000 M⁻¹ s⁻¹.

B4: the Kd turned out to be 1.99 nM, the “T 1/2” value was determined as 15 min, the koff is 0.000767 s⁻¹ and the kon amounted to 385000 M⁻¹ s⁻¹.

As to B5, the Kd was 4.59 nM, the “T 1/2” value was found to be 11 min, the koff was determined as 0.00107 s⁻¹ and the kon was found to be 233000 M⁻¹ s⁻¹.

For the molecule B6, binding was put at a Kd of 1.52 nM, the “T 1/2” value turned out to be 26 min, the koff turned out to be 0.00045 s⁻¹ and the kon amounted to 297000 M⁻¹ s⁻¹.

The target of a further assay is T4, hPRLR.mmh (soluble monomeric human PRLR). As to the kind of experiment: SPR (Biacore), antibody capture, 37 C. On the procedure:
as §1
A general note: In SPR one partner is held on a chip, and binding of the other changes the refractive index at the surface.
As for B1, binding was put at a Kd of 4.04 nM, the “T 1/2” value came to 3.7 min, the koff stood at 0.00314 s⁻¹ and the kon is 777000 M⁻¹ s⁻¹.

Take B2: binding was characterised by a dissociation constant (Kd) of 0.292 nM, the “T 1/2” value stood at 32 min, the koff was found to be 0.000366 s⁻¹ and the kon stood at 1.25e+06 M⁻¹ s⁻¹.

Regarding B3, the Kd came out at 0.48 nM, the “T 1/2” value is 25 min, the koff was 0.000455 s⁻¹ and the kon was 948000 M⁻¹ s⁻¹.

Take B4: the Kd was determined as 1.28 nM, the “T 1/2” value came to 16 min, the koff was 0.000716 s⁻¹ and the kon was found to be 557000 M⁻¹ s⁻¹.

As for B5, binding was characterised by a dissociation constant (Kd) of 3.02 nM, the “T 1/2” value came out at 11 min, the koff amounted to 0.00102 s⁻¹ and the kon was 339000 M⁻¹ s⁻¹.

On to B6, for which the affinity, expressed as Kd, was 1.14 nM; the “T 1/2” value came out at 24 min; the koff came out at 0.000484 s⁻¹; the kon was 426000 M⁻¹ s⁻¹.

A further assay concerns the target T5, hPRLR.mFc (soluble dimeric human PRLR). As to the kind of experiment: SPR (Biacore), antibody capture, 37 C. On the procedure:
as §1
Take B1: the Kd came out at 0.102 nM, the “T 1/2” value worked out at 82.6 min, the koff came to 0.00014 s⁻¹ and the kon was 1.37e+06 M⁻¹ s⁻¹.

B2: the Kd is 0.128 nM, the “T 1/2” value is 112 min, the koff came to 0.000103 s⁻¹ and the kon worked out at 801000 M⁻¹ s⁻¹.

Consider B3, for which the Kd came out at 0.128 nM, the “T 1/2” value amounted to 112 min, the koff came to 0.000103 s⁻¹ and the kon was 801000 M⁻¹ s⁻¹.

With B4, binding was characterised by a dissociation constant (Kd) of 0.217 nM, the “T 1/2” value came to 89 min, the koff came to 0.00013 s⁻¹ and the on-rate (kon) worked out at 598000 M⁻¹ s⁻¹.

Consider B5, for which the affinity, expressed as Kd, was 0.347 nM; the “T 1/2” value was 81 min; the koff was 0.000142 s⁻¹; the kon was determined as 410000 M⁻¹ s⁻¹.

As to B6, the Kd is 0.256 nM, the “T 1/2” value stood at 99 min, the koff worked out at 0.000117 s⁻¹ and the association rate constant (kon) came out at 456000 M⁻¹ s⁻¹.

The record behind these values is patent publication US20180185504A1 (Regeneron, published 2018).
